# From patent US20240270874A1 (JIANGSU HENGRUI PHARMACEUTICALS, published 2024)
# Numbering of substitutions follows the chain as printed. Names may count otherwise.
# T1: human KLB on CHOK1-hKLB cells (human, UniProt Q86Z14 1-1044)
# T1 construct: whole, on cells; also called human KLB antigen; β-Klotho
# T1 sequence (looked up): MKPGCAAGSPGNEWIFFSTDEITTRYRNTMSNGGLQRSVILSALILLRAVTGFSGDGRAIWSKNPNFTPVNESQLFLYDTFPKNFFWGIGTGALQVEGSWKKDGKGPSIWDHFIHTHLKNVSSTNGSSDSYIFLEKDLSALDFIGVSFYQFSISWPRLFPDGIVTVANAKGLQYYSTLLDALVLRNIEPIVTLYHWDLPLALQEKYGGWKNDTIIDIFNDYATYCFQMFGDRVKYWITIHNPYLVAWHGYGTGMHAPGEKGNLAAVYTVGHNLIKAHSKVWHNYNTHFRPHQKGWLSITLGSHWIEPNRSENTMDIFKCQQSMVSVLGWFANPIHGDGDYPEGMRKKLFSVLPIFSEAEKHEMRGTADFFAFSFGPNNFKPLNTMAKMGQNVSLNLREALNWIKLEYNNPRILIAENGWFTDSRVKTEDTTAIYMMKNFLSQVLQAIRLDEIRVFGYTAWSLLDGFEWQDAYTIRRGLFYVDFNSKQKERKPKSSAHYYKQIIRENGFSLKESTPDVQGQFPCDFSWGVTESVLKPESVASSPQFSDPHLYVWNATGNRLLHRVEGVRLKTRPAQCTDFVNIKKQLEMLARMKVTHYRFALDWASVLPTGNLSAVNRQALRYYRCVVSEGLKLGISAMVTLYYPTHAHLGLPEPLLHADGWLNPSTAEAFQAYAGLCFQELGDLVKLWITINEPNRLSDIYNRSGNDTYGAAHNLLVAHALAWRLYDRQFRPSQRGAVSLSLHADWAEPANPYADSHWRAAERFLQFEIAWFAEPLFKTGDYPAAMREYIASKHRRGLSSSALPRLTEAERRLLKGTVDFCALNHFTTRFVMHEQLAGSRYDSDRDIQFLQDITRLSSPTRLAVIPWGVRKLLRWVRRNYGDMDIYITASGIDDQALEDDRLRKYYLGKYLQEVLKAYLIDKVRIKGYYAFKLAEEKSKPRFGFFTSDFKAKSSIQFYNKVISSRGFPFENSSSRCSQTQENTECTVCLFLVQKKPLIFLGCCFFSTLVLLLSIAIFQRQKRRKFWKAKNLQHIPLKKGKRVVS
# B1: hAb99-6 (antibody, human IgG1, kappa, L234A L235A)
# heavy: not shown
# light: DIQMTQSPSSLSASVGDRVTITCRASKSISKFLAWFQQKPGKTNKLLIYSGSTLQSGVPSRFSGSGSGTDFTLTISSLQPEDFATYYCQQHNEYPWTFGGGTKVEIKRTVAAPSVFIFPPSDEQLKSGTASVVCLLNNFYPREAKVQWKVDNALQSGNSQESVTEQDSKDSTYSLSSTLTLSKADYEKHKVYACEVTHQGLSSPVTKSFNRGEC
# notes: humanized mAb-99: hAb99VH2 + hAb99VL2; human IgG1 (L234A, L235A) / kappa constant regions
# B2: hAb99-1 (antibody, human IgG1, kappa, L234A L235A, V domains shown)
# VH: EVQLVQSGAEVKKPGASVKVSCKASGYTFTNYGINWVRQAPGQRLEWMGYIYIGNGDIEYNAKFKGRVTITSDTSASTAYMELSSLRSEDTAVYYCARGRGLGHFDVWGQGTTVTVSS
# VL: DIQMTQSPSSLSASVGDRVTITCRASKSISKFLAWYQQKPGKANKLLIYSGSTLQSGVPSRFSGSGSGTDFTLTISSLQPEDFATYYCQQHNEYPWTFGGGTKVEIKR
# notes: humanized mAb-99: hAb99VH1 + hAb99VL1; human IgG1 (L234A, L235A) / kappa constant regions
# B3: hAb99-8 (antibody, human IgG1, kappa, L234A L235A, V domains shown)
# VH: B2 VH with R44G
# VL: B2 VL with I2V, M4I, Y36F, Q38E, A43T, V58I
# notes: humanized mAb-99: hAb99VH2 + hAb99VL4; human IgG1 (L234A, L235A) / kappa constant regions
# B4: hAb99-18 (antibody, human IgG1, kappa, L234A L235A, V domains shown)
# VH: B2 VH with R44G, N55Q
# VL: B2 VL with Y36F, A43T
# notes: humanized mAb-99: hAb99VH2-QG + hAb99VL2; human IgG1 (L234A, L235A) / kappa constant regions
# B5: hAb99-19 (antibody, human IgG1, kappa, L234A L235A, V domains shown)
# VH: B2 VH with A24T, R44G, G56V, Y95F
# VL: B2 VL with Y36F, A43T
# notes: humanized mAb-99: hAb99VH3-NV + hAb99VL2; human IgG1 (L234A, L235A) / kappa constant regions
# B6: hAb99-10 (antibody, human IgG1, kappa, L234A L235A)
# heavy: not shown
# light: B1 light
# notes: humanized mAb-99: hAb99VH3 + hAb99VL2; human IgG1 (L234A, L235A) / kappa constant regions
# B7: hAb99-15 (antibody, human IgG1, kappa, L234A L235A, V domains shown)
# VH: B2 VH with N55Q
# VL: B2 VL with Y36F, A43T
# notes: humanized mAb-99: hAb99VH1-QG + hAb99VL2; human IgG1 (L234A, L235A) / kappa constant regions
# B8: hAb99-2 (antibody, human IgG1, kappa, L234A L235A)
# heavy: not shown
# light: B1 light
# notes: humanized mAb-99: hAb99VH1 + hAb99VL2; human IgG1 (L234A, L235A) / kappa constant regions
# B9: hAb99-9 (antibody, human IgG1, kappa, L234A L235A, V domains shown)
# VH: B2 VH with A24T, R44G, Y95F
# VL: B2 VL
# notes: humanized mAb-99: hAb99VH3 + hAb99VL1; human IgG1 (L234A, L235A) / kappa constant regions
# B10: hAb99-12 (antibody, human IgG1, kappa, L234A L235A, V domains shown)
# VH: B2 VH with A24T, R44G, Y95F
# VL: B2 VL with I2V, M4I, Y36F, Q38E, A43T, V58I
# notes: humanized mAb-99: hAb99VH3 + hAb99VL4; human IgG1 (L234A, L235A) / kappa constant regions
# B11: hAb99-11 (antibody, human IgG1, kappa, L234A L235A)
# heavy: not shown
# light: B1 light with I2V, M4I
# notes: humanized mAb-99: hAb99VH3 + hAb99VL3; human IgG1 (L234A, L235A) / kappa constant regions
# B12: hAb99-21 (antibody, human IgG1, kappa, L234A L235A, V domains shown)
# VH: B2 VH with A24T, R44G, N55Q, Y95F
# VL: B2 VL with Y36F, A43T
# notes: humanized mAb-99: hAb99VH3-QG + hAb99VL2; human IgG1 (L234A, L235A) / kappa constant regions
# B13: hAb99-4 (antibody, human IgG1, kappa, L234A L235A, V domains shown)
# VH: B2 VH
# VL: B2 VL with I2V, M4I, Y36F, Q38E, A43T, V58I
# notes: humanized mAb-99: hAb99VH1 + hAb99VL4; human IgG1 (L234A, L235A) / kappa constant regions
# B14: hAb99-3 (antibody, human IgG1, kappa, L234A L235A)
# heavy: not shown
# light: B1 light with I2V, M4I
# notes: humanized mAb-99: hAb99VH1 + hAb99VL3; human IgG1 (L234A, L235A) / kappa constant regions
# B15: hAb99-17 (antibody, human IgG1, kappa, L234A L235A, V domains shown)
# VH: B2 VH with R44G, G56L
# VL: B2 VL with Y36F, A43T
# notes: humanized mAb-99: hAb99VH2-NL + hAb99VL2; human IgG1 (L234A, L235A) / kappa constant regions
# B16: hAb99-5 (antibody, human IgG1, kappa, L234A L235A, V domains shown)
# VH: B2 VH with R44G
# VL: B2 VL
# notes: humanized mAb-99: hAb99VH2 + hAb99VL1; human IgG1 (L234A, L235A) / kappa constant regions
# B17: hAb99-14 (antibody, human IgG1, kappa, L234A L235A, V domains shown)
# VH: B2 VH with G56L
# VL: B2 VL with Y36F, A43T
# notes: humanized mAb-99: hAb99VH1-NL + hAb99VL2; human IgG1 (L234A, L235A) / kappa constant regions
# B18: hAb99-16 (antibody, human IgG1, kappa, L234A L235A, V domains shown)
# VH: B2 VH with R44G, G56V
# VL: B2 VL with Y36F, A43T
# notes: humanized mAb-99: hAb99VH2-NV + hAb99VL2; human IgG1 (L234A, L235A) / kappa constant regions
# B19: hAb99-7 (antibody, human IgG1, kappa, L234A L235A)
# heavy: not shown
# light: B1 light with I2V, M4I
# notes: humanized mAb-99: hAb99VH2 + hAb99VL3; human IgG1 (L234A, L235A) / kappa constant regions
# B20: hAb99-20 (antibody, human IgG1, kappa, L234A L235A, V domains shown)
# VH: B2 VH with A24T, R44G, G56L, Y95F
# VL: B2 VL with Y36F, A43T
# notes: humanized mAb-99: hAb99VH3-NL + hAb99VL2; human IgG1 (L234A, L235A) / kappa constant regions
# B21: hAb18-2 (antibody, human IgG1, kappa, L234A L235A, V domains shown)
# VH: EVQLVQSGAEVKKPGASVKVSCKASGYTFTDYAMHWVRQAPGQRLEWMGVISTYSGTTNYNQNFKGRVTITVDKSASTAYMELSSLRSEDTAVYYCARSGPLDYWGQGTTVTVSS
# VL: ENVLTQSPDFQSVTPKEKVTITCRASSSVSSSYLHWYQQKPDQSPKLWIYSTSNLASGVPSRFSGSGSGTDYTLTINSLEAEDAATYYCQQYSGYPLTFGQGTKLEIKR
# notes: humanized mAb-18: hAb18VH1 + hAb18VL2; human IgG1 (L234A, L235A) / kappa constant regions
# B22: hAb18-4 (antibody, human IgG1, kappa, L234A L235A, V domains shown)
# VH: B21 VH with A24G, I70V
# VL: B21 VL
# notes: humanized mAb-18: hAb18VH2 + hAb18VL2; human IgG1 (L234A, L235A) / kappa constant regions
# B23: hAb18-6 (antibody, human IgG1, kappa, L234A L235A, V domains shown)
# VH: B21 VH with A24G, M48I, V68A, I70V
# VL: B21 VL
# notes: humanized mAb-18: hAb18VH3 + hAb18VL2; human IgG1 (L234A, L235A) / kappa constant regions
# B24: hAb18-5 (antibody, human IgG1, kappa, L234A L235A, V domains shown)
# VH: B21 VH with A24G, M48I, V68A, I70V
# VL: B21 VL with N2I, Y72F
# notes: humanized mAb-18: hAb18VH3 + hAb18VL1; human IgG1 (L234A, L235A) / kappa constant regions
# B25: hAb18-3 (antibody, human IgG1, kappa, L234A L235A, V domains shown)
# VH: B21 VH with A24G, I70V
# VL: B21 VL with N2I, Y72F
# notes: humanized mAb-18: hAb18VH2 + hAb18VL1; human IgG1 (L234A, L235A) / kappa constant regions
# B26: hAb18-1 (antibody, human IgG1, kappa, L234A L235A, V domains shown)
# VH: B21 VH
# VL: B21 VL with N2I, Y72F
# notes: humanized mAb-18: hAb18VH1 + hAb18VL1; human IgG1 (L234A, L235A) / kappa constant regions
# Target: T1, human KLB on CHOK1-hKLB cells
# Assay: flow cytometry on CHOK1-hKLB cells
# Description: The above heavy chain variable regions were fused to the heavy chain constant region (set forth in SEQ ID NO: 22) and the light chain variable regions were fused to the light chain constant region (set forth in SEQ ID NO: 23) to construct anti-KLB antibodies, and the binding activity of the obtained antibodies for CHOK1-hKLB was detected (see Test Example 2 of the present disclosure for the experimental method).
# The binding ability of the antibodies for CHOK1 cell strains CHOK1-hKLB and CHOK1-cynoKLB overexpressing human KLB and monkey KLB (see Example 1 for specific preparation procedure), respectively, was detected by flow cytometry. The specific procedure was as follows: the above cells were cultured in 10% FBS-containing IMDM medium and incubated in an incubator at 37° C. and 5% CO₂ for 2 days. The cells were then added to a cell plate at 1×10⁵ cells per well, centrifuged at 300 g for 5 min, and then washed once with 1% BSA. The antibody diluted in gradient was added to the cell plate at 100 μL per well, and the mixture was incubated at 4° C. for 1 h and washed once with 1% BSA. The diluted (1:400) APC-goat anti-human IgG Fc fluorescent secondary antibody was added at 100 μL per well, and the resulting mixture was incubated at 4° C. for 1 h. The plate was washed three times with 1% BSA, PBS was added at 100 μL per well, and the plate was read.
row,Binder,EC50 [nM]
1,B1,0.41
2,B2,0.61
3,B3,0.39
4,B4,0.43
5,B5,0.38
6,B6,0.36
7,B7,0.41
8,B8,0.35
9,B9,0.47
10,B10,0.33
11,B11,0.33
12,B12,0.45
13,B13,0.37
14,B14,0.35
15,B15,0.43
16,B16,0.5
17,B17,0.6
18,B18,0.47
19,B19,0.35
20,B20,0.41
21,B21,1.58
22,B22,2
23,B23,2
24,B24,1.8
25,B25,1.9
26,B26,1.34
